{
  "source": "patent EP4786489A1",
  "about": "“IL-22 MUTANT, PREPARATION METHOD THEREFOR, AND USE THEREOF” (Nanjing Novoacine Biotechnology Co., Ltd., priority 2023, dated 2025)",
  "key": {"STAT3": {"tested_on": "STAT3", "experiment": "STAT3 phosphorylation in HaCaT cells by FACS (tissue activation preference)", "assay_type": "cell-based, Human", "details": "STAT3 activation in HT29 vs HaCaT cells", "description": "Human immortalized keratinocyte HaCaT cells were recovered and cultured in MEM/EBSS medium (Cytiva, SH30024.01) supplemented with 15% FBS and 1% P/S (Cytiva, SV30010). When cell confluence reached 70%-80%, cells were digested with 0.25% Trypsin-EDTA (Gibco, 25200-056), terminated with complete medium, and resuspended to […]. After mixed thoroughly, a total of 120 µL per well cells was seeded into a 96-well plate (Corning, 3599) at a density of 1.5 × 10^5 cells per well and incubated overnight at 37°C with 5% CO2.\nwt IL-22 was prepared at an initial working concentration of 1000 nM, and the remaining samples were prepared at 10000 nM as the starting concentration. […] After staining at room temperature in the dark for 1 hour, cells were washed twice with 1× PBS and analyzed by flow cytometry to determine the mean fluorescence intensity (MFI).\nTissue activation preference of different test candidates was evaluated by comparing their ability to activate STAT3 in intestinal-derived HT29 cells and skin-derived HaCaT cells. […] The activity of PEGylated IL-22 mutants in activating STAT3 phosphorylation in HaCaT cells at different concentrations as determined by FACS is shown in Figure 8. […] Tissue preference of PEG-IL22 mutants for STAT3 phosphorylation in human intestinal and human skin cell lines determined by FACS"}, "[1]": {"experiment": "Mouse PK, plasma concentration by ELISA", "assay_type": "in vivo", "details": "single s.c. 1 mg/kg, male Balb/C mice", "description": "Male Balb/C mice (n = 4 per group) were administered a single subcutaneous injection at a dose of 1 mg/kg. Blood samples were collected before dosing and at 4 (no samples were collected at this time point for 60k-PEG-IL22-D109C and 60k-PEG-IL22-P120C), 8, 24, […], 48, 72, 96, and 120 hours after dosing. Anticoagulated blood was used to prepare plasma.\nThe concentrations of each test candidate in plasma were quantified by ELISA. Anti-IL22 Antibody (Sino Biological, 13059-MM24), diluted in PBS to 2 µg/mL, was used for coating. Standard curves of each test candidate and plasma samples were diluted to fall within the linear range of detection. Recombinant Anti-IL22 Antibody (Sino Biological, 13059-R034-H) was used for detection. The original concentration of each test candidate in the samples was calculated using a four-parameter fit of the standard curve for each test candidate. Pharmacokinetic parameters of each test candidate in mouse plasma were analyzed (Figure 12). Table 13. Dosing information for the mouse PK study"}, "[2]": {"tested_on": "DSS-induced mouse acute colitis model", "experiment": "Mouse DSS-induced colitis efficacy model", "assay_type": "in vivo, Balb/C mice", "text": "Balb/C mice were used to evaluate efficacy in a DSS-induced mouse acute colitis model. DSS refers to Dextran Sulfate Sodium Salt (MW: 36,000-50,000). When added to drinking water at an appropriate concentration, DSS disrupts intestinal epithelial cells and induces acute inflammatory bowel disease (IBD) in mice. Therefore, a 4% DSS-induced mouse IBD model was used to evaluate the potential therapeutic efficacy of the test candidates.\nMale Balb/C mice were allowed free access to drinking water containing 4% DSS until the average body weight of the model group decreased by approximately 15%. Fresh drinking water was then provided, followed by a 2-day recovery period. Body weight and the severity of loose stool/hematochezia for each mouse were monitored throughout the study (Figure 13), and a composite Disease Activity Index (DAI) was evaluated (Figure 14). At the endpoint, the colon of each mouse was collected and its length measured (Figure 15). The colons were photographed, rolled into a Swiss-roll configuration, fixed in 4% paraformaldehyde, dehydrated, embedded in paraffin, sectioned, and subjected to H&E staining (Figures 17-18). Histological scoring was performed on tissue morphology(Figure 16).\nThe dosing regimen of the test candidates was as follows (the day of DSS modeling was defined as D1, the previous day as D-1, and so on). Table 15. Dosing information for the mouse DSS-induced colitis model study\nParaffin sections of colon tissues were subjected to H&E staining and histopathological analysis. According to the actual severity of the lesions, the following scoring criteria were used: minimal (1 point), mild (2 points), moderate (3 points), and severe (4 points). Lesion area (%) scoring criteria were defined as: ≥50% (4 points), 25%-50% (3 points), 10%-25% (2 points), and ≤10% (1 point). Inflammation depth scoring criteria were defined as: epithelium (1 point), lamina propria (2 points), and muscularis mucosae (3 points). No lesion was recorded as \"-\". The score was calculated by summing the scores from the above three dimensions."}, "ear skin inflammation": {"tested_on": "ear skin inflammation", "details": "mouse, in vivo", "method": "Balb/C mice were used for induction of ear skin inflammation. By repeated inner-ear injections of the test candidates, changes in ear swelling thickness after injection were measured to reflect the ability of the test candidates to induce local inflammatory responses in the skin.\nOn Days 0, 1, 2 and 4, 5 µL of PBS solution containing the indicated amount of each test candidate was injected into the inner side of both ears of each mouse. Ear thickness was measured daily using a micrometer, and the increase of ear thickness relative to Day 0 (delta thickness) on each day after injection was calculated."}},
  "data": [
    {"molecule": "60K-PEG-IL22-P120C: IL-22 cysteine mutant, conjugation site 87, PEG-maleimide 60kD (conjugate) APISSHCRLDKSNFQQPYITNRTFMLAKEASLADNNTDVRLIGEKLFHGVSMSERCYLMKQVLNFTLEEVLFPQSDRFQPYMQEVVCFLARLSNRLSTCHIEGDDLHIQRNVQKLKDTVKKLGESGEIKAIGELDLLFMSLRNACI", "values": [
      {"measurement": "tissue preference compared with IL-22-Fc", "setting": "STAT3", "result": "superior tissue preference"},
      {"measurement": "AUClast", "setting": "[1]", "result": 105.2029, "unit": "µg·h/mL"},
      {"measurement": "Cmax", "setting": "[1]", "result": 4184.95, "unit": "ng/mL"},
      {"measurement": "MRT", "setting": "[1]", "result": 20.17, "unit": "h"},
      {"measurement": "T1/2", "setting": "[1]", "result": 11.62, "unit": "h"},
      {"measurement": "efficacy compared with 0.03 mg/kg IL-22-Fc (Group G6)", "setting": "[2]; 0.1 mg/kg (Group G4), body weight, DAI, colon length, histological scoring", "result": "superior efficacy"},
      {"measurement": "colon tissue morphology (H&E histology)", "setting": "[2]; 0.1 mg/kg s.c., days 4 and 6 (G4)", "result": "relatively intact"},
      {"measurement": "efficacy dose difference relative to IL-22-Fc", "setting": "[2]; 0.1 mg/kg vs 0.03 mg/kg", "result": 3, "unit": "fold"},
      {"measurement": "efficacy in the mouse DSS-induced acute colitis model", "setting": "[2]; body weight, DAI, colon length, histological scoring", "result": "clear efficacy"},
      {"measurement": "equivalent dose required to induce a comparable overall increase in ear thickness, relative to IL-22-Fc", "setting": "ear skin inflammation", "result": "approximately 8 fold"}
    ]}
  ]
}
